Test results from patent publication EP4644423A1 (Biyopharma Co., Ltd, dated 2025).
Changes are numbered by the printed parent chain. Values belong to the binder of their own block, whether it stands above or below them.

Key:
RC-Fc [1] = molecular target: T1, RC-Fc (human); assay: ELISA, RC-Fc coated, VHH-His titrated, anti-His-HRP; average of Exp1-3
T1 construct: Knob-in-hole heterodimer of the R chain and the C chain, human IgG1 Fc; expressed in 293 cells, purified on Protein A; also called RC-Fc fusion protein; reconstructed CGRP receptor extracellular region
T1 sequence (chain, as listed by the source limits assumed, chain 1 of 2): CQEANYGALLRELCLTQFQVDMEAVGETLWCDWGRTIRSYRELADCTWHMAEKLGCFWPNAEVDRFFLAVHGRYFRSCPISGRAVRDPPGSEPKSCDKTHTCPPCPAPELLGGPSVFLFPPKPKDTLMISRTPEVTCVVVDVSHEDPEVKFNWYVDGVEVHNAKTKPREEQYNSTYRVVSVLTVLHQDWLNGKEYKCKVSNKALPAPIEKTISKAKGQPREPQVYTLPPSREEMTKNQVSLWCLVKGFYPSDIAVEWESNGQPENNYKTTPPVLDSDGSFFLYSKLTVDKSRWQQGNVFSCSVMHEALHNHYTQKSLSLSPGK
T1 sequence (chain, as listed by the source limits assumed, chain 2 of 2): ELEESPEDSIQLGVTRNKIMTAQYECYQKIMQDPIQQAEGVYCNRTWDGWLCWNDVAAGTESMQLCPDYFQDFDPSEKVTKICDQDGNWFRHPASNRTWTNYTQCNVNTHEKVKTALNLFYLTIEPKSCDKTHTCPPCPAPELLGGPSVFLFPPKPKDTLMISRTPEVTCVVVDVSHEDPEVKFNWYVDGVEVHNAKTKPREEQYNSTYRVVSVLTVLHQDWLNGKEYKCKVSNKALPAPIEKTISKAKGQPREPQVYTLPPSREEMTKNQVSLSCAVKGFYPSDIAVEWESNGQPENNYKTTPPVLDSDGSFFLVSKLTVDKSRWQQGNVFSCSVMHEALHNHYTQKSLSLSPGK

RC-Fc [2] = molecular target: T1, RC-Fc; assay: ELISA, RC-Fc coated, VHH-His titrated, anti-His-HRP; Exp1
RC-Fc [3] = molecular target: T1, RC-Fc; assay: ELISA, RC-Fc coated, VHH-His titrated, anti-His-HRP; Exp3
RC-Fc [4] = molecular target: T1, RC-Fc; assay: ELISA, RC-Fc coated, VHH-His titrated, anti-His-HRP; Exp2
[5] = molecular target: CGRP receptor on SK-N-MC cells (UniProt O60894 27-148; Q16602 23-461, limits assumed); assay: cell-based or functional assay
Chain of CGRP receptor on SK-N-MC cells (O60894 27-148 limits assumed, chain 1 of 2): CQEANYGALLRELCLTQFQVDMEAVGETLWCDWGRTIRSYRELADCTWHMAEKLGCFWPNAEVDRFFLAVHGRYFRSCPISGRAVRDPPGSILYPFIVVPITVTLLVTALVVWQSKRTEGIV
Chain of CGRP receptor on SK-N-MC cells (Q16602 23-461 limits assumed, chain 2 of 2): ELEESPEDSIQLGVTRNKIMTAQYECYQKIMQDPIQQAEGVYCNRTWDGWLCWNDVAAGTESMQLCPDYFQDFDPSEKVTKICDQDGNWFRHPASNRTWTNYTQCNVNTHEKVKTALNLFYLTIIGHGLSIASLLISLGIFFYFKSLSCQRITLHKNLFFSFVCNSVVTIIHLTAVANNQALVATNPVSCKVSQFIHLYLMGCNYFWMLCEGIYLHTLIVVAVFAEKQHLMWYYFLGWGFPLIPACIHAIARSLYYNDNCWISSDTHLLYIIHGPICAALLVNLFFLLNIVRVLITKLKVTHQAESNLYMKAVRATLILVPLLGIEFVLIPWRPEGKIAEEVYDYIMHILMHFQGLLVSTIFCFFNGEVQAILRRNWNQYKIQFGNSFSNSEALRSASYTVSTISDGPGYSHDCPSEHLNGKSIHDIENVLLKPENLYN

[6] = molecular target: T2, pituitary adenylate cyclase-activating polypeptide (PACAP) (UniProt P18509 132-169, not fully specified; biotin label in the ELISA of Example 3 (Biotin-PACAP; position not stated); unlabelled in the cAMP assay); assay: ELISA, Biotin-PACAP on streptavidin plate, Fc fusion titrated, anti-human IgG-HRP
T2 construct: also called PACAP38; Biotin-PACAP
T2 peptide (looked up): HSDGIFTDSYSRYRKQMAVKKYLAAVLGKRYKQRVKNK

B1: A10-269-172 (VHH)
VHH: EVQVVESGGGLVQAGGSLRLSCVSSESSFSINTMRWYRQAPGKERELVASINSASSTYYGDAVKGRFTISRVNAKNTVYLQMNSLKPEDTAVYFCNTHSVLASRDYWGQGTQVTVSS
notes: Llama VHH with C-terminal 6xHis, expressed in 293 cells; also called N220505104
EC50 (RC-Fc [1]): 0.05 nM | EC50 (RC-Fc [2]): 0.056 nM | EC50 (RC-Fc [3]): 0.042 nM | EC50 (RC-Fc [4]): 0.051 nM

B2: A10-269-165 (VHH)
VHH: QVQLVESGGGLVQAGGSLRLSCAASRTWFSIGAMGWYRQAPGKQRELVATITSGSSTTYADAVKGRFTVSRDNAENTVYLQMNSLKPEDTAVYYCYTKSRRKPWDLENDYWGQGTQVTVSS
notes: Llama VHH with C-terminal 6xHis, expressed in 293 cells; also called N220505103
EC50 (RC-Fc [1]): 0.211 nM | EC50 (RC-Fc [2]): 0.097 nM | EC50 (RC-Fc [3]): 0.48 nM | EC50 (RC-Fc [4]): 0.057 nM

B3: A10-268-5 (VHH)
VHH: QVQLVESGGGLVQAGGSLRLSCAVSGRTVTTITMGWFRQAPGKEREFVASISWDGLSTGYQDSVKGRFTISRDNAKNTVYLQMNSLKPEDTAVYYCAAGDSLWSWSKVPANYAYWGQGTQVTVSS
notes: Llama VHH with C-terminal 6xHis, expressed in 293 cells; also called B828601
IC50 (nM), inhibition of CGRP-induced (5 nM) cAMP production in SK-N-MC cells [5]: > 10000 nM | EC50 (RC-Fc [1]): 0.136 nM | EC50 (RC-Fc [2]): 0.143 nM | EC50 (RC-Fc [3]): 0.08 nM | EC50 (RC-Fc [4]): 0.184 nM

B4: A10-269-56 (VHH)
VHH: EVQLVESGGGLVQAGGSLRLSCAASGSTFSGRYMGWFRQGQGKEREFVAASMWSGTAISYADSVKGRFTISRDNAKATMYLQMSSLKDEDTAVYYCAAGGLWNLKLSDAGYYEYWGQGTQVTVSS
notes: Llama VHH with C-terminal 6xHis, expressed in 293 cells; also called N220505101
binding result (RC-Fc [2]): no binding

B5: A10-268-42 (VHH)
VHH: QVQLVESGGGLVQAGDSLRLSCAASGRTFSGYVMGWFRQAPGKEREFVAALRWSSSNTNYAASVKGRFTISRDYAKDTVYLQMNSLKPDDTAVYYCAAKRDRPYGSTWTPVAADYDTWGQGTQVTVSS
notes: Llama VHH with C-terminal 6xHis, expressed in 293 cells; also called B828603; 42wt
IC50 (nM), inhibition of CGRP-induced (5 nM) cAMP production in SK-N-MC cells [5]: 39.7 nM | EC50 (RC-Fc [1]): 0.065 nM | EC50 (RC-Fc [2]): 0.025 nM | EC50 (RC-Fc [3]): 0.021 nM | EC50 (RC-Fc [4]): 0.15 nM

B7: PAC1s ECD-Fc (Fc fusion)
chain: MHSDCIFKKEQAMCLEKIQRANELMGFNDSSPGCPGMWDNITCWKPAHVGEMVLVSCPELFRIFNPDQDMGVVSRNCTEDGWSEPFPHYFDACGFDEYESETGDQDYYYLSVKA
notes: C-terminus of PAC1s ECD fused to the N-terminus of Fc; also called PACs1 ECD-Fc; PACls ECD-Fc; not shown: Fc fused to the C-terminus of the ECD
fold binding ability against PAC1 ECD-Fc [6]: 40 times that of PAC1 ECD-Fc

B11: A10-269-238 (VHH)
VHH: QVQLVESGGGLVQPGGSLRLSCAASGFTFGNYDMSWVRQAPGKGPEWVSGIAPAGTITRYADSVKGRFTISRDNAKNTLYLQMNSLKPEDTAVYRCAKGASWGQGTQVTVSS
notes: Llama VHH with C-terminal 6xHis, expressed in 293 cells; also called N220505106
EC50 (RC-Fc [1]): 0.082 nM | EC50 (RC-Fc [2]): 0.091 nM | EC50 (RC-Fc [3]): 0.081 nM | EC50 (RC-Fc [4]): 0.073 nM

B12: A10-268-103 (VHH)
VHH: QVQLVESGGGLVQAGGSLRLSCVASGRTFSSYAMGWFRQAPGKEREFVSGITESGATTRYADSMRGRFIISRDNAQNTVYLEMNSLKPEDSAVYYCAASRFGITVPTAKGAYNYWGQGTQVTVSS
notes: Llama VHH with C-terminal 6xHis, expressed in 293 cells; also called B828605
IC50 (nM), inhibition of CGRP-induced (5 nM) cAMP production in SK-N-MC cells [5]: 279 nM | EC50 (RC-Fc [1]): 0.25 nM | EC50 (RC-Fc [2]): 0.372 nM | EC50 (RC-Fc [3]): 0.265 nM | EC50 (RC-Fc [4]): 0.114 nM

The remaining lines, values ahead:

IC50 (nM), inhibition of CGRP-induced (5 nM) cAMP production in SK-N-MC cells [5]: 23.6 nM
B6: A10-268-273 (VHH)
VHH: B5 VHH with Q1E, A14P, R19T, T28A, F29K, S30N, G31R, S128A

EC50 (RC-Fc [1]): 0.062 nM | EC50 (RC-Fc [2]): 0.052 nM | EC50 (RC-Fc [3]): 0.061 nM | EC50 (RC-Fc [4]): 0.073 nM
B8: A10-269-385 (VHH)
VHH: EVQLVESGGGLVQAGGSLRVSCQASEISFSFHAMGWYRQAPGKQRELVARITSIGRTTYADFVKGRFTISRGNAKNTVYLQMNSLKPEDTAVYYCNAEPGRVNYEYWGQGTQVTVSS
notes: Llama VHH with C-terminal 6xHis, expressed in 293 cells; also called N220505107

IC50 (nM), inhibition of CGRP-induced (5 nM) cAMP production in SK-N-MC cells [5]: 492 nM
B9: A10-268-18 (VHH)
VHH: QVQLVESGGGQVQAGGSLRLSCAASGRISSSYDMGWLRQAPGKEREFVARITWSGGSTYYADSVKGRFTISRDSTKKTVYLQMNSLKPEDTAVYYCAANRAFTGQYDYWGQGTQVTVSS

IC50 (nM), inhibition of CGRP-induced (5 nM) cAMP production in SK-N-MC cells [5]: > 10000 nM | EC50 (RC-Fc [1]): 0.065 nM | EC50 (RC-Fc [2]): 0.024 nM | EC50 (RC-Fc [3]): 0.028 nM | EC50 (RC-Fc [4]): 0.144 nM
B10: A10-268-76 (VHH)
VHH: QVQLVESGGGLVPAGGSLNLSCAASGRTFSTYAMGWFRQAPGKEREFVATINWDNGRTYYADSVKGRFTISRDNAKNMVYLQMNSLKPEDTAVYYCAADKTAIFRTSVVPDDYDYWGQGTQVTVSS
notes: Llama VHH with C-terminal 6xHis, expressed in 293 cells; also called B828604
